According to US20220177580A1:

Biological target: huFcγRIIa-131H (His-tagged, soluble, captured for SPR) (human) (UniProt P12318)
Test: SPR, His-tagged FcγR captured by anti-His antibody, antibody injected

huFcγRIIa-131H (His-tagged, soluble, captured for SPR) (human), sequence (P12318 34-217 limits assumed): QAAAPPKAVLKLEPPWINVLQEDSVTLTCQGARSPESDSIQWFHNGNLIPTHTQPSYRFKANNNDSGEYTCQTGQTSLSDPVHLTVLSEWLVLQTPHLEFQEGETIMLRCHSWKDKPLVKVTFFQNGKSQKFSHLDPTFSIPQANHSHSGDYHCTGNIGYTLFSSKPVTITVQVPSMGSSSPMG

Question: With huIgG2 control (antibody) as the substance, how does the Kd read?
Answer: 25 µM
